Measurements published in patent publication US20030186329A1, “Use of substrate subtraction libraries to distinguish enzyme specificities” (The Scripps Research Institute, priority 1998, published 2003).

Legend:
t-PA = t-PA (Homo sapiens, UniProt P00750); assay: Cleavage of maltose binding protein-QRGRSA-HY4 fusion protein by t-PA (SDS-PAGE); format: biochemical; settings: 150 nM enzyme, 16 hours at 25 C
Method: (§1) The fusion consists of maltose binding protein fused to the amino terminus of the HY4 gene product of Arabidopsis thaliana with a linking region in between coding for the amino acid sequence QRGRSA, which is cleaved by t-PA between R and S. The concentration of fusion protein in each lane is […] and the concentration of u-PA or […] is 150 nM. The reaction buffer contains 50 mM Tris pH 7.5, 0.1 M NaCl, 1 mM EDTA, and 0.01% Tween 20. Reactions were set up in a total volume of […] and allowed to incubate 16 hours at 25 C. and then stopped by the addition of […] of 5× loading buffer and separated by electrophoresis on 12% polyacrylamide. The gel was stained with Coomassie Brilliant Blue 30 minutes and de-stained overnight.

u-PA = molecular target: T1, u-PA (Homo sapiens, UniProt P00749); assay: Cleavage of maltose binding protein-QRGRSA-HY4 fusion protein by u-PA (SDS-PAGE); format: biochemical; settings: 150 nM enzyme, 16 hours at 25 C
T1 construct: purchased Jack Henkin (Abbott Laboratories)
Method: as §1

t-PA, sequence (P00750 36-562): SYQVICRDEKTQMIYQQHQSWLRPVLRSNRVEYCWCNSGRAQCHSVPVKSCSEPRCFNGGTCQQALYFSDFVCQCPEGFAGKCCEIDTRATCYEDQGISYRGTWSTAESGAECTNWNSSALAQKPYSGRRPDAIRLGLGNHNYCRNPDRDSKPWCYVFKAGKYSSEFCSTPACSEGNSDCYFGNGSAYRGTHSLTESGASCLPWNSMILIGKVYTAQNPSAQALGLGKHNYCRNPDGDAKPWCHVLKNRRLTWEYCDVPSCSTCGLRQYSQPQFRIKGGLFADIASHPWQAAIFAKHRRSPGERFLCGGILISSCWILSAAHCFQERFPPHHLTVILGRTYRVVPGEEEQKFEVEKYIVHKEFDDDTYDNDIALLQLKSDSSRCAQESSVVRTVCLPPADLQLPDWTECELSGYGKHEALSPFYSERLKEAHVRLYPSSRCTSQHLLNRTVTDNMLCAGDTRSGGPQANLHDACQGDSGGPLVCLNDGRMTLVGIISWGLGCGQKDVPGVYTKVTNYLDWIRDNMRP

B1: fusion protein: maltose binding protein fused to HY4 gene product of Arabidopsis thaliana with linking region QRGRSA (protein)
chain: QRGRSAMSGSVSGCGSGGCSIVWFRRDLRVEDNPALAAAVRAGPVIALFVWAPEEEGHYHPGRVSRWWLKNSLAQLDSSLRSLGTCLITKRSTDSVASLLDVVKSTGASQIFFNHLYDPLSLVRDHRAKDVLTAQGIAVRSFNADLLYEPWEVTDELGRPFSMFAAFWERCLSMPYDPESPLLPPKKIISGDVSKCVADPLVFEDDSEKGSNALLARAWSPGWSNGDKALTTFINGPLLEYSKNRRKADSATTSFLSPHLHFGEVSVRKVFHLVRIKQVAWANEGNEAGEESVNLFLKSIGLREYSRYISFNHPYSHERPLLGHLKFFPWAVDENYFKAWRQGRTGYPLVDAGMRELWATGWLHDRIRVVVSSFFVKVLQLPWRWGMKYFWDTLLDADLESDALGWQYITGTLPDSREFDRIDNPQFEGYKFDPNGEYVRRWLPELSRLPTDWIHHPWNAPESVLQAAGIELGSNYPLPIVGLDEAKARLHEALSQMWQLEAASRAAIENGSEEGLGDSAEVEEAPIEFPRDITMEETEPTRLNPNRRYEDQMVPSITSSLIRPEEDEESSLNLRNSVGDSRAEVPRNMVNTNQAQQRRAEPASNQVTAMIPEFNIRIVAESTEDSTAESSSSGRRERSGGIVPEWSPGYSEQFPSEENGIGGGSTTSSYLQNHHEILNWRRLSQTG
modifications: left off: large carriers
Q: B1 was tested. Which “cleavage of fusion protein by t-PA” value (t-PA) did it give?
A: readily cleaved

Q: What about the “cleavage of fusion protein by u-PA” value (u-PA) of the same molecule?
A: did not
